# Source: publication PMC5967319
# Biological target: eukaryotic initiation factor 4E (eIF4E) (human (endogenous in HEK293T)) (UniProt P06730)
# Test: pull-down; eIF4E captured from HEK293T lysate (1 mg protein) on m7GTP-agarose (cap analog), 4 °C, 90 min, 50 mM HEPES pH 7.4, 50 mM NaCl; eluted with 0.5 mM m7GTP; blots for eIF4E and 4EBP1; cells in complete medium or medium without His, Arg, Leu or Met for 12 h, or transfected with empty vector, wild-type or T37A/T46A 4EBP1 for 24 h
# Sequence of UniProt P06730 (P06730 whole entry): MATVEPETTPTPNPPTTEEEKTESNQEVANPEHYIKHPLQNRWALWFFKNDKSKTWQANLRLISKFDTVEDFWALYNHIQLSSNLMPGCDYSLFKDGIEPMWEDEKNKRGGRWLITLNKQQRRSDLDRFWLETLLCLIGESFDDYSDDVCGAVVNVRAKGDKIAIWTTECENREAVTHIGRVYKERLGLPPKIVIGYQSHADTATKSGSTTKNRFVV
substance,measurement,value
mutant constitutively active 4EBP1(T37A/T46A) (from UniProt Q60876 1-117) (natural protein),fold of 4EBP1 bound to eIF4E against cells with empty vector,4 fold
